The numbers were not newly measured in article PMC12302472, which cites them from elsewhere.

For the series, the target named is ATOX1 (Homo sapiens) (UniProt O00244). Kind of series: SPR. (In general: Surface plasmon resonance follows binding to a sensor surface in real time, without labels.)
UniProt O00244, sequence (O00244 whole entry): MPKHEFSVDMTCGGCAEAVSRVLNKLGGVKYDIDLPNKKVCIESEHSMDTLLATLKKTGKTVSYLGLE

In general, Kd refers to a measure of binding affinity in units of concentration. As to MEMO1 (from UniProt Q9Y316), the Kd was 210 nM.
